Results on 16 sequences are retold here after the nanobody polyreactivity screen of Harvey et al. (2022).

The nature of this data set: yeast display, Sf9 membrane polyspecificity reagent, FACS + sequencing; frameworks hold sequencing errors. In outline:
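Using colony PCR, genes from sorted yeast display clones were amplified, then sequenced on MiSeq at 2 × 250 and filtered by CDR length. The clones had been stained with 10% biotinylated, detergent-solubilized Sf9 membrane reagent for 1 hour at 4 °C and sorted by FACS into low and high (top ~1%) gates on anti-HA and streptavidin fluorescence. Polyreactivity labels come from the gate of origin.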
Consider “QVQLVESGGGLVQAGGSLRLSCADSGSIFKYYVMGWYRQAPGKERELVADITSGGSTKYADSVKGRFTISRDNAKNTVYLQMNSLKPADTAVYYCAASWWYEIFDYWGQGTQVTVSS”, for which the “polyreactivity (PSR sort gate)” value is reported as “low polyreactivity”.
Consider “QVQLVESGGGLVQAGGSLRLSCADSGSIFRYYFMGCYRQAPGKERELVSAISSGGRTYYADSVKGRFTISRDNAKNTVYLQMNSLNPEDTAVYYCNDQGLFYCEMDYWGQGTQVTVSS”, for which the “polyreactivity (PSR sort gate)” value is reported as “high polyreactivity”.
Regarding “QVQLVESGGGLVQAGGSLRLSCADSGSIFWYYAMGWSRQAPGKETELVADITSTGGSTYYADSVKGRFTISRDYAKNTVYFQMNSLKPEVSAVYYCAAEACYHWYYSLGYWGQGTQVTVSS”, the “polyreactivity (PSR sort gate)” value is recorded as “high polyreactivity”.
For the sequence “QVQLVESGGGLVQAGGSLRLSCADSGSIFYTYAMGWYRQAPGKEREFVAAITQTGGTTYNADSVKGRFTISRDNAKNTVYFQMNSLKQEDTAVYYCAARYRAYKLYGRHYYWGQGTQVTVSS”, the “polyreactivity (PSR sort gate)” value is “high polyreactivity”.
For the sequence “QVQLVESGGGLVQAGGSLRLSCADSGSILTRNAMGWYRQAPGKERELVAAISYSGVRTYYADSVKGRFTISRDNAKNNVYLQMNSLKQEDTAVYYCNAVISSRYDYWGQGTQVTVSS”, the “polyreactivity (PSR sort gate)” value is recorded as “high polyreactivity”.
As for “QVQLVESGGGLVQAGGSLRLSCADSGSISYSYAMGWYRQAPGKDRELVAAISWRGVSTYYADSVKGRFTISRDNAKNTVYLQMNSLKPEDTAVYYCNAVHHYPEHIGGGYWGQGTLVTVSS”, the “polyreactivity (PSR sort gate)” value was “low polyreactivity”.
Take “QVQLVESGGGLVQAGGSLRLSCADSGSTFNSNVMGWYRQAPGKERELVAAISRSGGNTYYADSVKGRFTISRDNAKNTVYLQMNSLKPEDTAVYYCNKDGRYPYDYWGQGTQVTVSS”: the “polyreactivity (PSR sort gate)” value is “high polyreactivity”.
Turning to “QVQLVESGGGLVQAGGSLRLSCADSGSTFYYYTKGWYRQAPGKERELVAAISFSGGSTYYADSVKGRFTISLYNAKNTVYLQMNSLKPEDTAVYDCAAAQRVYKSWGYYWGQGSQVTVSS”, the “polyreactivity (PSR sort gate)” value was “low polyreactivity”.
To “QVQLVESGGGLVQAGGSLRLSCADSGYTFGRNAMGWYRQAPGKERELVATISQRGGSTYYADSVKGRFTISLDNAKNTVYLQLNSLKPEDTAVYYCAAGPIYRYRRYYYWGQGTQVTVSS” belongs “high polyreactivity”; to “QVQLVESGGGLVQAGGSLRLSCADSRSIITNNAMGWYRQAPGKERELVAAISGSGGSTYYADSVKGRFTISRDNAKNTVYLQMNSLKPEDTAVYYCAANKSSRRMNYWGLGTQVTVSS”, “high polyreactivity”; to “QVQLVESGGGLVQAGGSLRLSCAGSGFISYYYAMGWYRQAPGKEREFVAAITSSGGSTRYADSVKGRFTISRDNAKNTVYLQMNSLKPEDTAVYYCNADYYWFFDFFDYDYWGQGTQVTVSS”, “low polyreactivity”.
In the case of “QVQLVESGGGLVQAGGSLRLSCAGSGINFHLYAMGWYRQAPGKERELVAAISWNGSSTYYADSVKGRFTISRDNAKNTVYLQMNSLKPEDTAVYYCAASYGYFEDYGYWGQGNQVTVSS”, the “polyreactivity (PSR sort gate)” value is recorded as “low polyreactivity”.
In the case of “QVQLVESGGGLVQAGGSLRLSCAGSGLIFDDYPMGWYRQAPGKERELVAAISWSDGTTYYADSVKGRFTISRDNAKNTVYLQMNSLKPEDTAVYYCAAEEVSGWEYDYWGQGTQVTVSS”, the “polyreactivity (PSR sort gate)” value is “high polyreactivity”.
For “QVQLVESGGGLVQAGGSLRLSCAGSGRSFVYNAMGWYRQAPGQDRELVAAITSGGRTYYADSVKGRFTISRDNAKNTVYLQINSLKPEDTAVYDCAKRFWFNTYAAHPAGFDYWGQGTQVTVSS”, the “polyreactivity (PSR sort gate)” value is recorded as “low polyreactivity”.
For “QVQLVESGGGLVQAGGSLRLSCAGSGRTSLAYAMGWYRQAPGKERELVAGITSGGNTNYADSVKGRFTISCDNAKNTVYLQMNSLKPEDTAVYYCNKKKRWQWYSESVLDYLGFYSWGQGTQVTVSS”, the “polyreactivity (PSR sort gate)” value is given as “low polyreactivity”.
With “QVQLVESGGGLVQAGGSLRLSCAGSGSTFFEYAMGWYRQAPGKDREFVAGISWSGGITYYADSVKGRFTISRDNAKNTVYLQMNSLKPEDTAVYYCASAGGDWYGVDYWGQGTQVTVSS” the entry was “low polyreactivity”.
